Starred links: 1 amine or outer side, 2 acyl side, 3 side chain; linkers in the order of their positions; H or OH if unused. Positions of bridges follow the written chain, without caps; N, C: chain ends. Non-standard residues stand in square brackets, D forms with d. Groups on a side chain read outwards from the residue. *: point of attachment. Trp(1-Me) = Cn1cc(C[C@H](N)C(=O)O)c2ccccc21; C16 diacid = O=C(O)CCCCCCCCCCCCCCC(=O)*; γGlu = O=C(O)[C@H](CCC(=O)[*:2])N[*:1]; AEEA = NCCOCCOCC(=O)O; Sar = CNCC(=O)O
B1: Compound 78 (peptide)
peptide: Ac-SEFCI[Trp(1-Me)]QDWGEHRC[Sar]E-NH2
modifications: disulfide 4-14
SMILES: CC[C@H](C)[C@@H]1NC(=O)[C@@H](NC(=O)[C@H](Cc2ccccc2)NC(=O)[C@H](CCC(=O)O)NC(=O)[C@H](CO)NC(C)=O)CSSC[C@@H](C(=O)N(C)CC(=O)N[C@@H](CCC(=O)O)C(N)=O)NC(=O)[C@H](CCCNC(=N)N)NC(=O)[C@H](Cc2c[nH]cn2)NC(=O)[C@H](CCC(=O)O)NC(=O)CNC(=O)[C@H](Cc2c[nH]c3ccccc23)NC(=O)[C@H](CC(=O)O)NC(=O)[C@H](CCC(N)=O)NC(=O)[C@H](Cc2cn(C)c3ccccc23)NC1=O
B2: Compound 77 (peptide)
peptide: Ac-SEFCI[Trp(1-Me)]QDW[Sar]EHRCTEA-NH2
modifications: disulfide 4-14
SMILES: CC[C@H](C)[C@@H]1NC(=O)[C@@H](NC(=O)[C@H](Cc2ccccc2)NC(=O)[C@H](CCC(=O)O)NC(=O)[C@H](CO)NC(C)=O)CSSC[C@@H](C(=O)N[C@H](C(=O)N[C@@H](CCC(=O)O)C(=O)N[C@@H](C)C(N)=O)[C@@H](C)O)NC(=O)[C@H](CCCNC(=N)N)NC(=O)[C@H](Cc2c[nH]cn2)NC(=O)[C@H](CCC(=O)O)NC(=O)CN(C)C(=O)[C@H](Cc2c[nH]c3ccccc23)NC(=O)[C@H](CC(=O)O)NC(=O)[C@H](CCC(N)=O)NC(=O)[C@H](Cc2cn(C)c3ccccc23)NC1=O
B3: Compound 80 (peptide)
peptide: Ac-EFCI[Trp(1-Me)]QDWGEHRC[Sar]EA-NH2
modifications: disulfide 3-13
SMILES: CC[C@H](C)[C@@H]1NC(=O)[C@@H](NC(=O)[C@H](Cc2ccccc2)NC(=O)[C@H](CCC(=O)O)NC(C)=O)CSSC[C@@H](C(=O)N(C)CC(=O)N[C@@H](CCC(=O)O)C(=O)N[C@@H](C)C(N)=O)NC(=O)[C@H](CCCNC(=N)N)NC(=O)[C@H](Cc2c[nH]cn2)NC(=O)[C@H](CCC(=O)O)NC(=O)CNC(=O)[C@H](Cc2c[nH]c3ccccc23)NC(=O)[C@H](CC(=O)O)NC(=O)[C@H](CCC(N)=O)NC(=O)[C@H](Cc2cn(C)c3ccccc23)NC1=O
B4: Compound 76 (peptide)
peptide: Ac-SEFCI[Trp(1-Me)]QDW[Sar]EHRC[Sar]EA-NH2
modifications: disulfide 4-14
SMILES: CC[C@H](C)[C@@H]1NC(=O)[C@@H](NC(=O)[C@H](Cc2ccccc2)NC(=O)[C@H](CCC(=O)O)NC(=O)[C@H](CO)NC(C)=O)CSSC[C@@H](C(=O)N(C)CC(=O)N[C@@H](CCC(=O)O)C(=O)N[C@@H](C)C(N)=O)NC(=O)[C@H](CCCNC(=N)N)NC(=O)[C@H](Cc2c[nH]cn2)NC(=O)[C@H](CCC(=O)O)NC(=O)CN(C)C(=O)[C@H](Cc2c[nH]c3ccccc23)NC(=O)[C@H](CC(=O)O)NC(=O)[C@H](CCC(N)=O)NC(=O)[C@H](Cc2cn(C)c3ccccc23)NC1=O
B5: Compound 71 (peptide)
peptide: Ac-SEYCI[Trp(1-Me)]QDWGEHRC[Sar]EA-NH2
modifications: disulfide 4-14
SMILES: CC[C@H](C)[C@@H]1NC(=O)[C@@H](NC(=O)[C@H](Cc2ccc(O)cc2)NC(=O)[C@H](CCC(=O)O)NC(=O)[C@H](CO)NC(C)=O)CSSC[C@@H](C(=O)N(C)CC(=O)N[C@@H](CCC(=O)O)C(=O)N[C@@H](C)C(N)=O)NC(=O)[C@H](CCCNC(=N)N)NC(=O)[C@H](Cc2c[nH]cn2)NC(=O)[C@H](CCC(=O)O)NC(=O)CNC(=O)[C@H](Cc2c[nH]c3ccccc23)NC(=O)[C@H](CC(=O)O)NC(=O)[C@H](CCC(N)=O)NC(=O)[C@H](Cc2cn(C)c3ccccc23)NC1=O
B6: Compound 84 (peptide)
peptide: Ac-SEFCI[Trp(1-Me)]QDWGEHRCSEA-NH2
modifications: disulfide 4-14
SMILES: CC[C@H](C)[C@@H]1NC(=O)[C@@H](NC(=O)[C@H](Cc2ccccc2)NC(=O)[C@H](CCC(=O)O)NC(=O)[C@H](CO)NC(C)=O)CSSC[C@@H](C(=O)N[C@@H](CO)C(=O)N[C@@H](CCC(=O)O)C(=O)N[C@@H](C)C(N)=O)NC(=O)[C@H](CCCNC(=N)N)NC(=O)[C@H](Cc2c[nH]cn2)NC(=O)[C@H](CCC(=O)O)NC(=O)CNC(=O)[C@H](Cc2c[nH]c3ccccc23)NC(=O)[C@H](CC(=O)O)NC(=O)[C@H](CCC(N)=O)NC(=O)[C@H](Cc2cn(C)c3ccccc23)NC1=O
B7: Compound 79 (peptide)
peptide: Ac-SEFCI[Trp(1-Me)]QDW[Sar]EHRC[Sar]E-NH2
modifications: disulfide 4-14
SMILES: CC[C@H](C)[C@@H]1NC(=O)[C@@H](NC(=O)[C@H](Cc2ccccc2)NC(=O)[C@H](CCC(=O)O)NC(=O)[C@H](CO)NC(C)=O)CSSC[C@@H](C(=O)N(C)CC(=O)N[C@@H](CCC(=O)O)C(N)=O)NC(=O)[C@H](CCCNC(=N)N)NC(=O)[C@H](Cc2c[nH]cn2)NC(=O)[C@H](CCC(=O)O)NC(=O)CN(C)C(=O)[C@H](Cc2c[nH]c3ccccc23)NC(=O)[C@H](CC(=O)O)NC(=O)[C@H](CCC(N)=O)NC(=O)[C@H](Cc2cn(C)c3ccccc23)NC1=O
B8: Compound 74 (peptide)
peptide: Ac-SEFCI[Trp(1-Me)]QDWGEHRC[Sar]GAES-NH2
modifications: disulfide 4-14
SMILES: CC[C@H](C)[C@@H]1NC(=O)[C@@H](NC(=O)[C@H](Cc2ccccc2)NC(=O)[C@H](CCC(=O)O)NC(=O)[C@H](CO)NC(C)=O)CSSC[C@@H](C(=O)N(C)CC(=O)NCC(=O)N[C@@H](C)C(=O)N[C@@H](CCC(=O)O)C(=O)N[C@@H](CO)C(N)=O)NC(=O)[C@H](CCCNC(=N)N)NC(=O)[C@H](Cc2c[nH]cn2)NC(=O)[C@H](CCC(=O)O)NC(=O)CNC(=O)[C@H](Cc2c[nH]c3ccccc23)NC(=O)[C@H](CC(=O)O)NC(=O)[C@H](CCC(N)=O)NC(=O)[C@H](Cc2cn(C)c3ccccc23)NC1=O
B9: Compound 87 (peptide)
peptide: Ac-GEFCI[Trp(1-Me)]QDWGEHRC[Sar]EA-NH2
modifications: disulfide 4-14
SMILES: CC[C@H](C)[C@@H]1NC(=O)[C@@H](NC(=O)[C@H](Cc2ccccc2)NC(=O)[C@H](CCC(=O)O)NC(=O)CNC(C)=O)CSSC[C@@H](C(=O)N(C)CC(=O)N[C@@H](CCC(=O)O)C(=O)N[C@@H](C)C(N)=O)NC(=O)[C@H](CCCNC(=N)N)NC(=O)[C@H](Cc2c[nH]cn2)NC(=O)[C@H](CCC(=O)O)NC(=O)CNC(=O)[C@H](Cc2c[nH]c3ccccc23)NC(=O)[C@H](CC(=O)O)NC(=O)[C@H](CCC(N)=O)NC(=O)[C@H](Cc2cn(C)c3ccccc23)NC1=O
B10: Compound 72 (peptide)
peptide: Ac-FCI[Trp(1-Me)]QDW[Sar]EHRCTGAES-NH2
modifications: disulfide 2-12
SMILES: CC[C@H](C)[C@@H]1NC(=O)[C@@H](NC(=O)[C@H](Cc2ccccc2)NC(C)=O)CSSC[C@@H](C(=O)N[C@H](C(=O)NCC(=O)N[C@@H](C)C(=O)N[C@@H](CCC(=O)O)C(=O)N[C@@H](CO)C(N)=O)[C@@H](C)O)NC(=O)[C@H](CCCNC(=N)N)NC(=O)[C@H](Cc2c[nH]cn2)NC(=O)[C@H](CCC(=O)O)NC(=O)CN(C)C(=O)[C@H](Cc2c[nH]c3ccccc23)NC(=O)[C@H](CC(=O)O)NC(=O)[C@H](CCC(N)=O)NC(=O)[C@H](Cc2cn(C)c3ccccc23)NC1=O
B11: Compound 83 (peptide)
peptide: Ac-SEFCI[Trp(1-Me)]QEWGEHRC[Sar]EA-NH2
modifications: disulfide 4-14
SMILES: CC[C@H](C)[C@@H]1NC(=O)[C@@H](NC(=O)[C@H](Cc2ccccc2)NC(=O)[C@H](CCC(=O)O)NC(=O)[C@H](CO)NC(C)=O)CSSC[C@@H](C(=O)N(C)CC(=O)N[C@@H](CCC(=O)O)C(=O)N[C@@H](C)C(N)=O)NC(=O)[C@H](CCCNC(=N)N)NC(=O)[C@H](Cc2c[nH]cn2)NC(=O)[C@H](CCC(=O)O)NC(=O)CNC(=O)[C@H](Cc2c[nH]c3ccccc23)NC(=O)[C@H](CCC(=O)O)NC(=O)[C@H](CCC(N)=O)NC(=O)[C@H](Cc2cn(C)c3ccccc23)NC1=O
B12: Compound 102 (peptide)
peptide: Ac-FCI[Trp(1-Me)]QDWGEHRCTGAESK([AEEA-AEEA-γGlu-C16 diacid])-NH2
modifications: disulfide 2-12
SMILES: CC[C@H](C)[C@@H]1NC(=O)[C@@H](NC(=O)[C@H](Cc2ccccc2)NC(C)=O)CSSC[C@@H](C(=O)N[C@H](C(=O)NCC(=O)N[C@@H](C)C(=O)N[C@@H](CCC(=O)O)C(=O)N[C@@H](CO)C(=O)N[C@@H](CCCCNC(=O)COCCOCCNC(=O)COCCOCCNC(=O)CC[C@H](NC(=O)CCCCCCCCCCCCCCC(=O)O)C(=O)O)C(N)=O)[C@@H](C)O)NC(=O)[C@H](CCCNC(=N)N)NC(=O)[C@H](Cc2c[nH]cn2)NC(=O)[C@H](CCC(=O)O)NC(=O)CNC(=O)[C@H](Cc2c[nH]c3ccccc23)NC(=O)[C@H](CC(=O)O)NC(=O)[C@H](CCC(N)=O)NC(=O)[C@H](Cc2cn(C)c3ccccc23)NC1=O

target: T1, Human C3 (human, UniProt P01024 23-1663); experiment: cell-based or functional assay
T1 sequence (P01024 23-1663 limits assumed): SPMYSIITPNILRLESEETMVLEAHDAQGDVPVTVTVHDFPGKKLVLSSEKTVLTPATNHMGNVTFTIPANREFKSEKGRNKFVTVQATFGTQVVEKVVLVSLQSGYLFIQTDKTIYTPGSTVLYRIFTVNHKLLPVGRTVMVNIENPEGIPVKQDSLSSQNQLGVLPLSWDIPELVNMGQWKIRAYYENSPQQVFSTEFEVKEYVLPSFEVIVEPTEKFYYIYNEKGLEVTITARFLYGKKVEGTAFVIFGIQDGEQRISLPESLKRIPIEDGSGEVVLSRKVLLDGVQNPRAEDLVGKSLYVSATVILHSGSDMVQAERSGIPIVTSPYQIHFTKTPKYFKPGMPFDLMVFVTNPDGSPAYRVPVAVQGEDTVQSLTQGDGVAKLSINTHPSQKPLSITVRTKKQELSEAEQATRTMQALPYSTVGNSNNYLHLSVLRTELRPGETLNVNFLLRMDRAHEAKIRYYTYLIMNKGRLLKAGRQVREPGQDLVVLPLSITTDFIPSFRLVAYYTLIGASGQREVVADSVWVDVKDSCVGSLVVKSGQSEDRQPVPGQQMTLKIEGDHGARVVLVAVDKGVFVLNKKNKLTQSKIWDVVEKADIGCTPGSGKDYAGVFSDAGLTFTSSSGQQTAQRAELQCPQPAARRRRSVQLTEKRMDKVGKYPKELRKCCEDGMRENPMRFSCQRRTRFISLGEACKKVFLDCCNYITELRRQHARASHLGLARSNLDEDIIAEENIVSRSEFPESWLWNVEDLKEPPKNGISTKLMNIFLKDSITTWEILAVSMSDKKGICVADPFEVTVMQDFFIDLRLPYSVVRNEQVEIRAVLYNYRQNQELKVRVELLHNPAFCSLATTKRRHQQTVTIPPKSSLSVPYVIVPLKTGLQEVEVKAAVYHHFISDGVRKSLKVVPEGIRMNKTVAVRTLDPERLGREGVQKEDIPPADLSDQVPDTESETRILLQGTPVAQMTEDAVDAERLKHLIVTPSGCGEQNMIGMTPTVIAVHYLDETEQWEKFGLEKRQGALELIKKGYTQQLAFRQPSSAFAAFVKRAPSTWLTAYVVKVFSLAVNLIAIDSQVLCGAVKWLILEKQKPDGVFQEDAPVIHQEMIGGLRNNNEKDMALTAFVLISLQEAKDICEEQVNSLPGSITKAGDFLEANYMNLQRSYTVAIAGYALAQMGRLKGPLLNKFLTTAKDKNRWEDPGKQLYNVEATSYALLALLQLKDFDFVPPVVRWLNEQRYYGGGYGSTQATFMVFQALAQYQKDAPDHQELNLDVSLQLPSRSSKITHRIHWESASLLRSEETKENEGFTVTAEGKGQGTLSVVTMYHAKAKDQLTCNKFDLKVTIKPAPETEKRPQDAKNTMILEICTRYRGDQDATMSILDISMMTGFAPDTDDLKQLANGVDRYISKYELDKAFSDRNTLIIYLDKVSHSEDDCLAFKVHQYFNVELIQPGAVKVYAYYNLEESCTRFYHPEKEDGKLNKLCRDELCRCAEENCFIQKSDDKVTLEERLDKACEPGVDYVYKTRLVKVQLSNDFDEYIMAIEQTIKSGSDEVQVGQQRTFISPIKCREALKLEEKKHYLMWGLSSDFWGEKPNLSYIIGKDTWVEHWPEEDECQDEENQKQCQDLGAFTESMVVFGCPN

Question: B1 was tested. Which IC50[nM], inhibition of hemolysis did it give?
Answer: < 100 nM

Question: Which IC50[nM], inhibition of hemolysis does the source give for B2 here?
Answer: < 100 nM

Question: With B3 as the binder, how does the IC50[nM], inhibition of hemolysis read?
Answer: < 100 nM

Question: How did the IC50[nM], inhibition of hemolysis turn out when B4 was run?
Answer: < 100 nM

Question: Which IC50[nM], inhibition of hemolysis does the source give for B5 here?
Answer: < 100 nM

Question: Which IC50[nM], inhibition of hemolysis does the source give for B6 here?
Answer: < 100 nM

Question: With B7 as the binder, how does the IC50[nM], inhibition of hemolysis read?
Answer: < 100 nM

Question: Which IC50[nM], inhibition of hemolysis does the source give for B8 here?
Answer: < 100 nM

Question: Which IC50[nM], inhibition of hemolysis does the source give for B9 here?
Answer: < 100 nM

Question: B10 was tested. Which IC50[nM], inhibition of hemolysis did it give?
Answer: < 100 nM

Question: Which IC50[nM], inhibition of hemolysis does the source give for B11 here?
Answer: < 100 nM

target: T1, Human C3; experiment: SPR, C3 immobilised
Method: Surface plasmon resonance (SPR) was used to characterize peptides with respect to their binding affinity (Kd) for C3. Human C3 (Complement tech cat #A1 13c) was immobilised on individual flow cells of CM5 sensor chips (GE Healthcare) using standard amine coupling to a density of approximately 3000 resonance units (RU) in a buffer consisting of 10 mM phosphate pH 7.4, 150 mM NaCl, 0.05% Tween20.
For interaction experiments a multi-cycle experiment approach was used and performed using either a Biacore™ T200 or Biacore™ X100 instrument (GE Healthcare) at 25° C. Peptides were injected in increasing concentration series (5-8 different concentrations) for 60-120 s at a flow rate of 30 μL/min in a buffer consisting of 10 mM Tris buffer at pH 7.4, with 150 mM NaCl and 0.05% Tween20. This was followed by a dissociation period for up to 10 min. The C3 surface was regenerated between runs by a 45 s injection of 3 M MgCl₂.
Sensorgrams were double-referenced (reference surface, blanks) prior to analysis of the kinetic profiles by globally fitting data to a 1:1 Langmuir binding model to obtain association and dissociation rates for calculation of the equilibrium dissociation constant Kd. Each peptide was tested at in at least 2 independent experiments.

Question: For B12, which Kd is on record?
Answer: 1.7 nM

target: T1, Human C3; experiment: cell-based or functional assay; remark: another data set of the same source

Question: With B12 as the binder, how does the “IC50[nM], inhibition of hemolysis” value read?
Answer: < 100 nM

Reference: patent US20220306695A1, “COMPSTATIN ANALOGUES AND THEIR MEDICAL USES” (priority 2019, published 2022)
